Among the data in paper PMC7142073, “Acclimation of bacterial cell state for high-throughput enzyme engineering using a DmpR-dependent transcriptional activation system” (Scientific Reports, 2020) are Km, kcat and kcat/Km values, retold here.

Substrate in this series: N[C@@H](Cc1ccc(O)cc1)C(=O)O
Nature of the series: purified protein. Conditions: 50 mM potassium phosphate, 50 µM PLP; pH 8.0; 60.0 °C. It counts as biochemical, Symbiobacterium sp. SC-1.

B1: thermostable TPL (TTPL) (Symbiobacterium sp. SC-1) (protein)
chain: MQRPWAEPYKIKAVEPIRMTTREYREQAIREAGYNTFLLRSEDVYIDLLTDSGTNAMSDRQWGALMMGDEAYAGARSFFRLEEAVREIYGFKYVVPTHQGRGAEHLISRILIKPGDYIPGNMYFTTTRTHQELQGGTFVDVIIDEAHDPQANHPFKGNVDIAKFEALIDRVGADKIPYINVALTVNMAGGQPVSMANLREVRKVCDRHGIRMWSDATRAVENAYFIKEREEGYQDKPVREILKEMMSYFDGCTMSGKKDCLVNIGGFLAMNEEWILQKAREQVVIFEGMPTYGGLAGRDMEAIAQGIYEMVDDDYIAHRIHQVRYLGEQLLEAGIPIVQPIGGHAVFLDARAFLPHIPQDQFPAQALAAALYVDSGVRAMERGIVSAGRNPQTGEHNYPKLELVRLTIPRRVYTDRHMDVVAYSVKHLWKERDTIRGLRMVYEPPTLRFFTARFEPIS
notes: His-tagged, pSHCE plasmid, expressed in E. coli DH5alpha with pGESS; cloning primer starts … (M-Q-R-P)
As for B1, the Km amounted to 270 ± 10 µM, the kcat was 0.15 ± 0.01 s⁻¹ and the kcat/Km was 550 ± 10 M⁻¹ s⁻¹.
